These results are taken from the RNAGym collection of RNA variant scans (doi:10.1073/pnas.2313332121).

Fewer inactive variants are shown than the library holds. Some results are limits rather than exact numbers.

Sequences and labels used below:
B1: TPR 5TU (parent)
chain: GGAUCUUCUCGAUCUAACAAAAAAGACAAAUCUGCCACAAAGCUUGAGAGCAUCUUCGGAUGCAGAGGCGGCAGCCUUCGGUGGCGCGAUAGCGCCAACGUUCUCAACUAUGACACGCAAAACGCGUGCUCCGUUGAAUGGAGUUUAUCAUG

The variants in this data set derive from B1. Briefly: polymerase ribozyme fitness, log enrichment relative to wild type (log ratio); higher = more active; in vitro selection for triplet polymerase activity. The method in brief: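 Mutant libraries for each subunit of a heterodimeric triplet polymerase ribozyme were made by PCR and then transcribed. Each library underwent one round of in vitro selection in triplicate: annealing with a biotinylated primer, the partner subunit and triplets, frozen incubation at −7 °C, gel excision of extended constructs, streptavidin-bead capture and RT-PCR. Input and output libraries were Illumina-sequenced, and only genotypes with ≥10 input reads and ≥1 read per output were kept. Fitness is the logarithm, base 2, of genotype enrichment over wild-type enrichment, computed from inverse-variance-weighted replicate averages.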
As for GGAUCUUUUCGAUCUAACAAAAAAGACUAAUCUGCCACAAAGCUUGAGAGCAACUUCGGAUGCAGAAGUGGCAGCCUUCGGUGGCGCCUUAGCGCCAGCGUUCUCAACUAUGACACGCAAAACGCGUGCUCCGUUGACUGGAGUUUAUCAUG [C8U A28U U53A G67A C69U G88C A89U A98G A138C], the “polymerase ribozyme fitness (log ratio)” value was no more than -4.2.

On to GGAUCUUGUCGAUCUAACAAAAAAGACAAAACUUCCACAAAGCUUGAGAGCAUCUUGGGAUGCAGAGGCGGCAGCCUUCGGUGGCGCGAUAGGGCCAACGUUCUCAACUAUGACACGCAAAACGCGUGCUCCGUUGAAUGGAGUUUAUCAUG [C8G U31A G34U C57G C93G], for which the “polymerase ribozyme fitness (log ratio)” value is no more than -4.2.

With GGAUCUUUUCGAUCUAACAUAAAAGACAAAUCUGCCACAAAGCUUCAGAGCAUCUUCGUCUGUAGAGGCGGCAGCCUUCGGUUGCGUGAUAGCGCCUACGUUCUCAACUAUGACACGCAAAACGCGUGCUCCGUUGAAUGGAGUAUAUCAUG [C8U A20U G46C G59U A60C C63U G83U C87U A97U U145A], the “polymerase ribozyme fitness (log ratio)” value was no more than -4.2. Next, GGAUCUUUUCGAUCUCACAAAAAAGACAAAUCUGCCACAAAGCUUGAGAGCAAAUUCGGAUGCAGAGGCGCCAGCCUUCGGUGGCGCGAUAGCGCCAACGUUCUCAACUAUGACACGCAAAACGCGUGCUCCGUUGAAUGCAGUUUACUAUG [C8U A16C U53A C54A G71C G141C U148C C149U]: no more than -4.2; GGAUCUUUUCGAUCUACCAAAAAAGACGAAUCUGUCACAAAGCUUGAGAGCAUCUUCGGAUGCAGAGGCGGCAGCAUUCGGUGGCGCGAUAGCGCUAACGUUCUCAACUAUGACACGCAAAACGCGUGCUCCGUUGAAUGGAGGUUAUCAUG [C8U A17C A28G C35U C76A C96U U144G]: -3.75; GGAUCUUGUCGAUCUAACAAAAAAGACAAAUCUGCCACAAAGCUUGAGAGCAUCGUCGGAUGCAGAGGCGGUAGCCUUCGGUGUCGCGAUAGCGCCAACGUUCUCAACUAUGACACGCAAAACGCGUGCUCCGUUAAAUGGAGUUUAUCAUG [C8G U55G C72U G84U G136A]: no more than -4.2. Next, GGAUCUUUUCGGUCUAACAAAAAAGACAAAUCUGCCACAAAGCUUGAGAGCGUCUUCGGAUGCAGAGGCGGCAGCCUUCGGUGGCGCGAUAGCGCCAUCGUUCUCAACUAUGACACGCAAAACGCGUGCUCCGUUGAAUGGAGUUUAUCAUG [C8U A12G A52G A98U]: -2.99; GGAUCUUUUCGAUCUAACUAAAAAGACAAAUCUGCCACAAAGCUUGAGAGCAUCUUCGGAUACAGAGGCGGCAGCCUUCGGUGGCCCGAUAGCGCCAACGUUCUCAACUAUGCCACGCAAAACGCGUGCUCCGUUGAAUGGAGUUUAUCAUG [C8U A19U G62A G86C A113C]: no more than -4.2.

GGAUCUUUUCGAUCUAACAAAUAAGAUAAAUCUGCCACAAAGCUUGAGAGCAUCUUCGGAUGCAGAGGCAGCAGCCUUCGGUGGAGCGUUAUCGCCAACGUUCUCAACUAUGACACGCAAAACGCGUGCUCCGUUGAAUGGAGUUUAUCAUG [C8U A22U C27U G70A C85A A89U G92U]: the “polymerase ribozyme fitness (log ratio)” value is no more than -4.2. In the case of GGAUCUUUUCGAUCUAACCAAAAAGACAAAUCUGCCACAGAGCUUGAGAGCAUCUUCGGAUGCAGAGGCGGCAGCCUUCGGUGGCGCGAUAGCGCUAACGUUCUCAACUAUGACACGCAAAACGCGUGCUCCGUUGAAUGGUGUUUAUCAUG [C8U A19C A40G C96U A142U], the “polymerase ribozyme fitness (log ratio)” value was no more than -4.2. As to GGAUCUUUUCGAUCUAACAAAAAAGACAAUUCUGCCACAAAGCAUGAGAGCAUCUUCGGAUGCAGAGGCGGCAGCCUUCGGUGGCGCGAUAGCGCCGACGGUCUCAACUAUGGCACGCAAAACGCGUGCUCUGUUGAAUGGAGUUUAUGUUG [C8U A30U U44A A97G U101G A113G C132U C149G A150U], the “polymerase ribozyme fitness (log ratio)” value is no more than -4.2. Next, GGAUCUUUUCGAUCUAACAAACAAGCCAAAUCUGCCACAAAGCUUGAGACCAUCUUCGGAUGCAGAGGCGGCAGCCUUCGGUGGAGCGAUAGCGCCAACGUUCUCAACUAUGACAUGAAAAACGCGUGCUCCGUUGAAUGGAGUUUAUCAUG [C8U A22C A26C G50C C85A C116U C118A]: no more than -4.2; GGAUCUUGUCGAUCUAACAAAAAAGACAAAUCUGCCACAAAGCUUGAGAGCAUCUUCGGAGGCAGAGGCGGCAGCCUUCGAUGGCGUGAUACCGCCAACGUUCUCAACUAUGACACGCAAGACGCGUGCUCAGUUGAAUGGAGAUUAUCAUA [C8G U61G G81A C87U G92C A121G C132A U144A G152A]: no more than -4.2. Next, GGAUCUUUUCGAUCUAACCAAAAAGACAAAUCUGCCACAGAGCUUGAGAGCAUCUUUGGAUGCAGAGGCGGCAGCCUUCGGUGGCGCGAUAUCGCCAACGUUCUCAACUAUGACACGCAAAACGCGUGCUCCGUUGAAUAGAGUUAAUCAUG [C8U A19C A40G C57U G92U G140A U146A]: no more than -4.2.

Consider GGAUCUUUUCGAUCUAACAAAUAAGACAAAUCUGCCACAAAGCUUGAGAGCAUCUACGGAUGCAGAGGCGGCGGCCUUCGGUGGCGCGAUAGCGCCAACGUUCUCAACUAUGACACGCAAGAUGCGUGCUCCGUUGAAUGGAGUUUAUCAUG [C8U A22U U56A A73G A121G C123U], for which the “polymerase ribozyme fitness (log ratio)” value was -4.16.

For GGAUCUUUUCGGUCUAACAAAAAAGACCAAUCUGCCAUAAAGCUUGAGAGCAUCUUGGGAUGCAGAGGCGGCAGCCUUCGGUGGCGCGAUAGCGUCAACGUUCUCAACUAUGACACGCAAAACGCGUGCUCCGUUGAAUGGAGUUUAUCAUG [C8U A12G A28C C38U C57G C95U], the “polymerase ribozyme fitness (log ratio)” value was no more than -4.2. To GGAUCUUGUCGAUCUAACAAAAAAGACAAAUCUGCCACAAAGCUUGAGAGCAUCUUCGGAUGCAGAGGCGGCAGCCUUCGGAGGAGCGAUUGCGCUAACGUUCUCAACUAUGACACCCAAAACGCGUGCUCCGUUGAAUGGAGUUUAUCAUG [C8G U82A C85A A91U C96U G117C] belongs no more than -4.2; to GGAUCUUGUCGAUCUAACAAAAAAGACAAAUCUGCCACAAAGCAUGAGAGCCUCUUCGGAUGCAGAGGCGGCAGACUUCGGUGGCGCGAUGGCGCCAACGUUCUCAACUAUGACACGCAAAACGCGUGCUCCGUUGAAUGGAGUUUAGCAUG [C8G U44A A52C C75A A91G U148G], no more than -4.2. Next, GGAUCUUUUCGAUCUAACAAAAAAGACAGAUCUGCCACAAAGCUUGAGAGCGUCUACGGAUGCAGAGGCGGCAGCCUUCGGUGGCGCGAUAGCGCCAACGUUCUCAACUAUGACACGCAAAACGCGGGCUCCGUUGAAUGGAGUUUAUCAUG [C8U A29G A52G U56A U127G]: no more than -4.2.
